# Patent US20220041754A1 (CRISPR THERAPEUTICS, published 2022)
# What was measured:
# [1] = target: T1, anti-CD70 CAR of SEQ ID NO: 6; assay: flow cytometry, antibody dilution 1:6400, cell population with about 65.4% anti-CD70 CAR+ cells
# T1 construct: also called anti-CD70 CAR T cells; anti-CD70 chimeric antigen receptor
# [2] = target: T1, anti-CD70 CAR of SEQ ID NO: 6; assay: flow cytometry, antibody dilution 1:800, cell population with about 65.4% anti-CD70 CAR+ cells
# [3] = target: T1, anti-CD70 CAR of SEQ ID NO: 6; assay: flow cytometry, antibody dilution 1:3200, cell population with about 65.4% anti-CD70 CAR+ cells
# [4] = target: T1, anti-CD70 CAR of SEQ ID NO: 6; assay: flow cytometry, antibody dilution 1:1600, cell population with about 65.4% anti-CD70 CAR+ cells
# [5] = target: T1, anti-CD70 CAR of SEQ ID NO: 6; assay: flow cytometry, antibody dilution 1:400, cell population with about 65.4% anti-CD70 CAR+ cells
# [6] = target: T1, anti-CD70 CAR of SEQ ID NO: 6; assay: flow cytometry, antibody dilution 1:50, cell population with about 65.4% anti-CD70 CAR+ cells
# [7] = target: T1, anti-CD70 CAR of SEQ ID NO: 6; assay: flow cytometry, antibody dilution 1:200, cell population with about 65.4% anti-CD70 CAR+ cells
# [8] = target: T2, anti-BCMA CAR of SEQ ID NO: 7; assay: flow cytometry on anti-BCMA CAR T cells, antibody at fold dilutions 100 to 12800, % CAR positive cells
# T2 construct: also called anti-BCMA CAR T cells
# T2 sequence (chain, as listed by the source limits assumed): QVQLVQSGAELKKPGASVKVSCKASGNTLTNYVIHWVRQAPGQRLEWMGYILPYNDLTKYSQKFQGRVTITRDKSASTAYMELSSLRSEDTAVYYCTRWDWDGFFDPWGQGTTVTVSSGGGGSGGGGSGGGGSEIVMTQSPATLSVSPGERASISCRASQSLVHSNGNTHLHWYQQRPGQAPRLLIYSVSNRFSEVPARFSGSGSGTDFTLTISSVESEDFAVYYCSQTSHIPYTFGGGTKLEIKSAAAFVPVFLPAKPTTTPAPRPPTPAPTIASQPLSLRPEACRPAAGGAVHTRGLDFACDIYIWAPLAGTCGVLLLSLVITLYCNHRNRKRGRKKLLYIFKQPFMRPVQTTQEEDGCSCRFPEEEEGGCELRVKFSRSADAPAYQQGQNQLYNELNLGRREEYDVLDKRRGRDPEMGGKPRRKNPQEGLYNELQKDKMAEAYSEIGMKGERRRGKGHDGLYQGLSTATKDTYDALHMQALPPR
# Experimental: (§1) The purified 20H05-02D09 antibody was analyzed by flow cytometry for binding to CAR T cells expressing the anti-CD70 CAR of SEQ ID NO: 6 (anti-CD70 CAR T cells). CAR T cells expressing an anti-BCMA CAR of SEQ ID NO: 7 (anti-BCMA CAR T cells) or an anti-CD19 CAR SEQ ID NO: 8 (anti-CD19 CAR T cells) were used as negative controls. Anti-CD70-scFv antibody (20H05-02D09) was analyzed at various dilutions (FIG. 2).
# [9] = target: T3, anti-CD19 CAR SEQ ID NO: 8; assay: flow cytometry on anti-CD19 CAR T cells, antibody at fold dilutions 100 to 12800, % CAR positive cells
# T3 construct: also called anti-CD19 CAR T cells
# Experimental: as §1
# [10] = target: T1, anti-CD70 CAR of SEQ ID NO: 6; assay: flow cytometry, antibody dilution 1:100, cell population with about 65.4% anti-CD70 CAR+ cells
# T1 sequence (chain, as listed by the source limits assumed): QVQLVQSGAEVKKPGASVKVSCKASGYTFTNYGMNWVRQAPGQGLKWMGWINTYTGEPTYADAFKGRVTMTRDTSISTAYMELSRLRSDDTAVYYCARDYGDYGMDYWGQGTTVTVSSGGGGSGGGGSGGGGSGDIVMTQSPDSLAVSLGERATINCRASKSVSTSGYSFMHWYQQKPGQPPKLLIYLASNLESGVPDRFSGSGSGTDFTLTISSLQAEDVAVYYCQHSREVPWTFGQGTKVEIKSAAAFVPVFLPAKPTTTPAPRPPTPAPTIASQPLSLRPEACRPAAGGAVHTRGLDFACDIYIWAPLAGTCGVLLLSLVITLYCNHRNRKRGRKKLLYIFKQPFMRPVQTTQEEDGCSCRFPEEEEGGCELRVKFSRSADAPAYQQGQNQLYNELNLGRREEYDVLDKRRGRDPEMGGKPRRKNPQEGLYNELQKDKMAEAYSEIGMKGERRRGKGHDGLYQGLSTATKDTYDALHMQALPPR
percentage of anti-CD70 CAR+ cells [1],percentage of anti-CD70 CAR+ cells [2],percentage of anti-CD70 CAR+ cells [3],percentage of anti-CD70 CAR+ cells [4],percentage of anti-CD70 CAR+ cells [5],percentage of anti-CD70 CAR+ cells [6],percentage of anti-CD70 CAR+ cells [7],binding result [8],binding result [9],percentage of anti-CD70 CAR+ cells [10],Binder
66.5%,66.5%,67.8%,65.4%,67.2%,67.7%,68.3%,no binding,no binding,67.5%,"mouse anti-CD70-scFv monoclonal antibody 20H05-02D09 (antibody, mouse IgG1, kappa, V domains shown, also called 20H05-2D09; native 20H05-2D09) VH: QIQLVQSGPELKKPGETVKISCKASGYTFTNYGMHWVKQAPGKVLKWMGWINTYSGVPTYPDDFKGRFAFSLETSASTASLQINNLKNEDTATYFCATERLRGWFPFWGQGTLVTVSA VL: QIVLTQSPAIMSASPGEKVTISCSASSSVSYMYWYQQKPGSSPKPWIYRTSNLASGVPARFSGSGSGTSYSLTISSMEAEDAATYYCQQYHSYPPTFGGGTKLEIKR"
62.4%,61.5%,62.7%,61.4%,61.8%,60.8%,61.7%,,,61.3%,"APC conjugated 20H05 (antibody, mouse IgG1, kappa, V domains shown, conjugated with APC (allophycocyanin); site and chain not stated, also called direct APC conjugated antibody) VH: QIQLVQSGPELKKPGETVKISCKASGYTFTNYGMHWVKQAPGKVLKWMGWINTYSGVPTYPDDFKGRFAFSLETSASTASLQINNLKNEDTATYFCATERLRGWFPFWGQGTLVTVSA VL: QIVLTQSPAIMSASPGEKVTISCSASSSVSYMYWYQQKPGSSPKPWIYRTSNLASGVPARFSGSGSGTSYSLTISSMEAEDAATYYCQQYHSYPPTFGGGTKLEIKR"
65.3%,67%,66.2%,66.4%,66.4%,66.3%,67.6%,,,65.9%,"biotin conjugated 20H05 (antibody, mouse IgG1, kappa, V domains shown, conjugated with biotin; site and chain not stated) VH: QIQLVQSGPELKKPGETVKISCKASGYTFTNYGMHWVKQAPGKVLKWMGWINTYSGVPTYPDDFKGRFAFSLETSASTASLQINNLKNEDTATYFCATERLRGWFPFWGQGTLVTVSA VL: QIVLTQSPAIMSASPGEKVTISCSASSSVSYMYWYQQKPGSSPKPWIYRTSNLASGVPARFSGSGSGTSYSLTISSMEAEDAATYYCQQYHSYPPTFGGGTKLEIKR"
